Laboratory results taken from paper PMC3477848 (Biochemistry, 2012).

Molecular target: T1, Dpo4 (SsoDpo4, Y-family DNA polymerase) (Sulfolobus solfataricus, UniProt Q97W02 1-352)
T1 sequence: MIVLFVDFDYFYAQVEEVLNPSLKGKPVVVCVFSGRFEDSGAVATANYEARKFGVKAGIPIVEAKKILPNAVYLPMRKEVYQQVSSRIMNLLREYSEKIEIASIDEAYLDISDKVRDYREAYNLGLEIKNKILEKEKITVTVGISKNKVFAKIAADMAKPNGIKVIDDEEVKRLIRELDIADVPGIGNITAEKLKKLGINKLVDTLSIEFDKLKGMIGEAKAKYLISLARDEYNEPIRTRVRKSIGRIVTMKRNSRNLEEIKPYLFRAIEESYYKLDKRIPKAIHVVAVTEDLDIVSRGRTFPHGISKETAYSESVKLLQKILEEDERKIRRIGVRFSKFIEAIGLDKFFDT
Test: fluorescence anisotropy

## TTTTTTTTTTCCCGGGCCGGCGTTTCGCCGGCCCGGG (structured_DNA) [37-nt hairpin primer-template, 5'-Cy3]
  Kd: 176 ± 10 nM
